T1: factor VIIIa A1/A3C1C2 dimer, wild type (human, UniProt P00451 20-391; P00451 1709-2351)
T1 sequence 1: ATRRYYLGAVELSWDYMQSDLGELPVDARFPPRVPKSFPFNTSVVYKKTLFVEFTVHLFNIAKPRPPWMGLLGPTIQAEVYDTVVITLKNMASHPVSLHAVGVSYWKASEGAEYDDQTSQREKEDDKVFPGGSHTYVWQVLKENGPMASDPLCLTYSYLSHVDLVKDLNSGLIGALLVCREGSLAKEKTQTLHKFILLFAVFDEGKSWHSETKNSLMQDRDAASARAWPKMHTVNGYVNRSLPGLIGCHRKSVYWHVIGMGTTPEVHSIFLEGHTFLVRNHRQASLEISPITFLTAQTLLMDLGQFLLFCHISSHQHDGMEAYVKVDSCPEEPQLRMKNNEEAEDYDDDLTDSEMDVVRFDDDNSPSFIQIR
T1 sequence 2: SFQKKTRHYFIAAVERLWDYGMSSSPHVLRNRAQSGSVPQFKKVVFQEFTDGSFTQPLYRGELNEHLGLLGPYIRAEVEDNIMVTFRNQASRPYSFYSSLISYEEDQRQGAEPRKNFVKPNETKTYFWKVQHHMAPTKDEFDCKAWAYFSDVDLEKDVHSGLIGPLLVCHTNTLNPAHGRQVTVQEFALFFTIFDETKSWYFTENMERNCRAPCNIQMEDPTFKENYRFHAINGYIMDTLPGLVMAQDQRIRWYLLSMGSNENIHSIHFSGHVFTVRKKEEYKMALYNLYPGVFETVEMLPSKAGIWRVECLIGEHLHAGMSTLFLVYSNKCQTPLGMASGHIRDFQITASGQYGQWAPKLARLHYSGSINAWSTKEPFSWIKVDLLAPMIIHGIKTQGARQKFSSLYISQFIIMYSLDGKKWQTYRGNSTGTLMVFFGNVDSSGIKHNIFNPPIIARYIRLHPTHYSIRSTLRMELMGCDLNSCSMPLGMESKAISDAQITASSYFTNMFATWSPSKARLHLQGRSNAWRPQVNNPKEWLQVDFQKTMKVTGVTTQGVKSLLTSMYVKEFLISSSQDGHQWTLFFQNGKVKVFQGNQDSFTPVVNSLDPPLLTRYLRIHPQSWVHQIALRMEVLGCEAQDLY

T2: factor VIIIa A1/A3C1C2 dimer, Glu1984Ala (human, UniProt P00451 20-391; P00451 1709-2351)
T2 sequence 1: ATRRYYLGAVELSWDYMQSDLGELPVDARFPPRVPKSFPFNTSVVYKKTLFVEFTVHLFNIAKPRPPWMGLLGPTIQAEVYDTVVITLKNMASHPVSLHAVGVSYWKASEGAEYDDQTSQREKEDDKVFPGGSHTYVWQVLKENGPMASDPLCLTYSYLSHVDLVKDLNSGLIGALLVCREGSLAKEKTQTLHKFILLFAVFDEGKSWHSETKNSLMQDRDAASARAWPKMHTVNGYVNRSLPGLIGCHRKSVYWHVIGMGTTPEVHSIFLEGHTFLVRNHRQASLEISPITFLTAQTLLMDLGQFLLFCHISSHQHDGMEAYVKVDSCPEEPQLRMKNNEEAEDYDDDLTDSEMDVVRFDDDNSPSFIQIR
T2 sequence 2: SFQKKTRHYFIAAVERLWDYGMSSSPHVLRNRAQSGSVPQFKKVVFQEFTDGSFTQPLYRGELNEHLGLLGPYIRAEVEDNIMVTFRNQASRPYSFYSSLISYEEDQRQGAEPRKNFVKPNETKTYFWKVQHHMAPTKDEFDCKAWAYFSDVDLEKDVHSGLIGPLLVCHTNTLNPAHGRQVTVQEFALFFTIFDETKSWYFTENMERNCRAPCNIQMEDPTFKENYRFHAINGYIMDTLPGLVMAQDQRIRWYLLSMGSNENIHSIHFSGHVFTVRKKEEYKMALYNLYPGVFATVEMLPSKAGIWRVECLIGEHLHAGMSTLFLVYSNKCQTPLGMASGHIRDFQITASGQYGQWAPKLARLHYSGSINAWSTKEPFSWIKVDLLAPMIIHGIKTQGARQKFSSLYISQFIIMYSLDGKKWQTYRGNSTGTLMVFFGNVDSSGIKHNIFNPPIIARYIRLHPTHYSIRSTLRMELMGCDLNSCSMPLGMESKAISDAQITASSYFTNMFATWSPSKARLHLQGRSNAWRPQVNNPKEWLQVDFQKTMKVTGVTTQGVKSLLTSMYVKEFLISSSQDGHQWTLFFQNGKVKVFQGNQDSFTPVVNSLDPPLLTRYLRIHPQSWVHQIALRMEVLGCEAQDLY

T3: factor VIIIa A1/A3C1C2 dimer, Glu1984Val (human, UniProt P00451 20-391; P00451 1709-2351)
T3 sequence 1: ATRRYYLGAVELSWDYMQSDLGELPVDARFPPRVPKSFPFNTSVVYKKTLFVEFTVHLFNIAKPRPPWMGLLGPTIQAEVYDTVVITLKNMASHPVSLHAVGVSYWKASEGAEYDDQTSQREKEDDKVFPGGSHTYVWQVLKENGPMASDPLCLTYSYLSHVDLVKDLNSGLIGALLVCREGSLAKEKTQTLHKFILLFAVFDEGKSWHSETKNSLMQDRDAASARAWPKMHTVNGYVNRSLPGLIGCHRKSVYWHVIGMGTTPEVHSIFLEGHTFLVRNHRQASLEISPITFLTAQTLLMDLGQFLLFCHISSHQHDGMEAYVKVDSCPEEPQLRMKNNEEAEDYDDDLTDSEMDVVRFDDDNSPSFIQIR
T3 sequence 2: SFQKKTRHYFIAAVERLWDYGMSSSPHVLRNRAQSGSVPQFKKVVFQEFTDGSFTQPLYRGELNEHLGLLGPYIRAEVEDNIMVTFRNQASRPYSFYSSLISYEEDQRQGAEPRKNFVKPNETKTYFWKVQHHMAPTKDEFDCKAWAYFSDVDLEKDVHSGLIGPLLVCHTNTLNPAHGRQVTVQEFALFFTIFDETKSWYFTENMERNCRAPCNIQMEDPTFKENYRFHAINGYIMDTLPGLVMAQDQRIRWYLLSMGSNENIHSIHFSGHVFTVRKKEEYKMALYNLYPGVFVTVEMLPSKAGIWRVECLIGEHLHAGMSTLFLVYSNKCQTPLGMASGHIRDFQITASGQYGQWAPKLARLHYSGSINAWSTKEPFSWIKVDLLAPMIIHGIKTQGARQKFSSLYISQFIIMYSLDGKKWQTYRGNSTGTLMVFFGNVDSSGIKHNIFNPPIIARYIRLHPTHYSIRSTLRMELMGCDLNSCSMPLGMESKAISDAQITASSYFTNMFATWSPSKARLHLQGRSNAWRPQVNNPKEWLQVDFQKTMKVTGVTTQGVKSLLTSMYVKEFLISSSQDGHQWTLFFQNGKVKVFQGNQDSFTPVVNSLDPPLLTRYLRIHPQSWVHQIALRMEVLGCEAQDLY

T4: factor VIIIa A1/A3C1C2 dimer, Glu113Ala (human, UniProt P00451 20-391; P00451 1709-2351)
T4 chain 1: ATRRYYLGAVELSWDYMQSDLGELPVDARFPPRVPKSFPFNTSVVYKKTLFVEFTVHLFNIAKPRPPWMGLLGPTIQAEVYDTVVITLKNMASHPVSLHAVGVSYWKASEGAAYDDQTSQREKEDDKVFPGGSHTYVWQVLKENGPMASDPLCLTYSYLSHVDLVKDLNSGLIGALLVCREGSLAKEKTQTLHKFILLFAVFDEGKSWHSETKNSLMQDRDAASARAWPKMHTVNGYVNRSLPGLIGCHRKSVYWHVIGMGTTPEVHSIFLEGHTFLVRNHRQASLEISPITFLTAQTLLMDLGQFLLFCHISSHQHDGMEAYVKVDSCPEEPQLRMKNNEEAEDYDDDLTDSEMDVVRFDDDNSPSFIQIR
T4 chain 2: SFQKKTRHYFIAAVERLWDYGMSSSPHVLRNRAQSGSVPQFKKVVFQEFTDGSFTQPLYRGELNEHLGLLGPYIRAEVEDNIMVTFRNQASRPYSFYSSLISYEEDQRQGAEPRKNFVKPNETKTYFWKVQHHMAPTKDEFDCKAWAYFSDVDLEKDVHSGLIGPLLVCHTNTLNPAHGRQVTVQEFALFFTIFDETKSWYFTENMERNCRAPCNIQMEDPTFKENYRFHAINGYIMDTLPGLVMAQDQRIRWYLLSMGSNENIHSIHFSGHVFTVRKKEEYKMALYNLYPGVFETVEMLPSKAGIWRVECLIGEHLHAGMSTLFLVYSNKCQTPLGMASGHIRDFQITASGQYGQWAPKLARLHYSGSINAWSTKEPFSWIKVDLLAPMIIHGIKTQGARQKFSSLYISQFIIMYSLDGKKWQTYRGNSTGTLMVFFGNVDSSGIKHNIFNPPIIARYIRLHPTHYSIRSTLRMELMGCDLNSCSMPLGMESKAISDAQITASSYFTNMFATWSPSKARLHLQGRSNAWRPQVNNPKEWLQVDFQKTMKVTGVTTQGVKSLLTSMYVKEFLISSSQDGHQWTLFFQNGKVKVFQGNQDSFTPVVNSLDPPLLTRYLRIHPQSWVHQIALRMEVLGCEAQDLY


Key:
Assay in all cases: cell-based or functional assay
[1] = target: T1, factor VIIIa A1/A3C1C2 dimer, wild type
[2] = target: T1, factor VIIIa A1/A3C1C2 dimer, wild type; remark: listed apart in the source
[3] = target: T2, factor VIIIa A1/A3C1C2 dimer, Glu1984Ala
[4] = target: T3, factor VIIIa A1/A3C1C2 dimer, Glu1984Val
[5] = target: T4, factor VIIIa A1/A3C1C2 dimer, Glu113Ala

Binder | Factor VIIIa Decay relative to the WT value, Factor IXa absent [1] | Factor VIIIa Decay relative to the WT value, Factor IXa present [1] | Factor VIIIa Decay, Factor IXa absent [1] [min⁻¹] | Factor VIIIa Decay, Factor IXa present [1] [min⁻¹] | Decay rate relative to wild type, Factor VIIIa (1.5 nM, factor IXa absent) [2] | Decay rate, Factor VIIIa (1.5 nM factor VIIIa, factor IXa absent) [2] [min⁻¹] | Decay rate relative to wild type, Factor VIIIa (1.5 nM, factor IXa absent) [3] | Decay rate, Factor VIIIa (1.5 nM factor VIIIa, factor IXa absent) [3] [min⁻¹] | Decay rate relative to wild type, Factor VIIIa (1.5 nM, factor IXa absent) [4] | Decay rate, Factor VIIIa (1.5 nM factor VIIIa, factor IXa absent) [4] [min⁻¹] | Decay rate relative to wild type, Factor VIIIa (1.5 nM, factor IXa absent) [5] | Decay rate, Factor VIIIa (1.5 nM factor VIIIa, factor IXa absent) [5] [min⁻¹]
factor VIIIa A2 subunit, Glu665Val (other) SVAKKHPKTWVHYIAAEEEDWDYAPLVLAPDDRSYKSQYLNNGPQRIGRKYKKVRFMAYTDETFKTREAIQHESGILGPLLYGEVGDTLLIIFKNQASRPYNIYPHGITDVRPLYSRRLPKGVKHLKDFPILPGEIFKYKWTVTVEDGPTKSDPRCLTRYYSSFVNMERDLASGLIGPLLICYKESVDQRGNQIMSDKRNVILFSVFDENRSWYLTENIQRFLPNPAGVQLEDPEFQASNIMHSINGYVFDSLQLSVCLHEVAYWYILSIGAQTDFLSVFFSGYTFKHKMVYVDTLTLFPFSGETVFMSMENPGLWILGCHNSDFRNRGMTALLKVSSCDKNTGDYYEDSYEDISAYLLSKNNAIEPR | 0.19 relative to WT | 0.34 relative to WT | 0.016 | 0.0052 | 0.28 relative to wild type | 0.0395 | 0.26 relative to wild type | 0.036 | 0.48 relative to wild type | 0.0671 | 0.24 relative to wild type | 0.0333
factor VIIIa A2 subunit, D519V and E665V (other) SVAKKHPKTWVHYIAAEEEDWDYAPLVLAPDDRSYKSQYLNNGPQRIGRKYKKVRFMAYTDETFKTREAIQHESGILGPLLYGEVGDTLLIIFKNQASRPYNIYPHGITDVRPLYSRRLPKGVKHLKDFPILPGEIFKYKWTVTVEVGPTKSDPRCLTRYYSSFVNMERDLASGLIGPLLICYKESVDQRGNQIMSDKRNVILFSVFDENRSWYLTENIQRFLPNPAGVQLEDPEFQASNIMHSINGYVFDSLQLSVCLHEVAYWYILSIGAQTDFLSVFFSGYTFKHKMVYVDTLTLFPFSGETVFMSMENPGLWILGCHNSDFRNRGMTALLKVSSCDKNTGDYYEDSYEDISAYLLSKNNAIEPR | – | – | – | – | 0.14 relative to wild type | 0.0198 | 0.1 relative to wild type | 0.0142 | 0.16 relative to wild type | 0.0227 | – | –
factor VIIIa A2 subunit, D519A and E665V (other) SVAKKHPKTWVHYIAAEEEDWDYAPLVLAPDDRSYKSQYLNNGPQRIGRKYKKVRFMAYTDETFKTREAIQHESGILGPLLYGEVGDTLLIIFKNQASRPYNIYPHGITDVRPLYSRRLPKGVKHLKDFPILPGEIFKYKWTVTVEAGPTKSDPRCLTRYYSSFVNMERDLASGLIGPLLICYKESVDQRGNQIMSDKRNVILFSVFDENRSWYLTENIQRFLPNPAGVQLEDPEFQASNIMHSINGYVFDSLQLSVCLHEVAYWYILSIGAQTDFLSVFFSGYTFKHKMVYVDTLTLFPFSGETVFMSMENPGLWILGCHNSDFRNRGMTALLKVSSCDKNTGDYYEDSYEDISAYLLSKNNAIEPR | – | – | – | – | 0.16 relative to wild type | 0.0222 | 0.17 relative to wild type | 0.0235 | – | – | – | –
factor VIIIa A2 subunit, Asp519Ala (other) SVAKKHPKTWVHYIAAEEEDWDYAPLVLAPDDRSYKSQYLNNGPQRIGRKYKKVRFMAYTDETFKTREAIQHESGILGPLLYGEVGDTLLIIFKNQASRPYNIYPHGITDVRPLYSRRLPKGVKHLKDFPILPGEIFKYKWTVTVEAGPTKSDPRCLTRYYSSFVNMERDLASGLIGPLLICYKESVDQRGNQIMSDKRNVILFSVFDENRSWYLTENIQRFLPNPAGVQLEDPEFQASNIMHSINGYVFDSLQLSVCLHEVAYWYILSIGAQTDFLSVFFSGYTFKHKMVYEDTLTLFPFSGETVFMSMENPGLWILGCHNSDFRNRGMTALLKVSSCDKNTGDYYEDSYEDISAYLLSKNNAIEPR | 0.66 relative to WT | 0.41 relative to WT | 0.0556 | 0.0063 | 0.64 relative to wild type | 0.0898 | 0.19 relative to wild type | 0.0266 | 0.23 relative to wild type | 0.0319 | 0.53 relative to wild type | 0.0748

Source: patent US20090118184A1 (UNIVERSITY OF ROCHESTER, published 2009)
